Results taken from the DeepSol protein solubility set.

assay: soluble on expression in E. coli; label from the status in PepcDB or PDB records

| Sequence | soluble on expression in E. coli |
| --- | --- |
| MNSTFIVNFVGKATPATIKQLAAVTHENGGKWLISKVNFIEDSVAAVIKIELPADNASTVKQAFQTYPSLLVEITDADPHVHKSDAVYKVRLDANDRAGIVNEITHLLDGQGISILDMDCQRVFIAGGGGISSSLFTANVAMRLPVNIEIDDVINELEALSEDTRVTLEA | not soluble |
| MNSTHHYEQLIEIFNSCFADDFNTRLIKGDDEPIYLPADAEVPYNRIVFAHGFYASAIHEISHWCIAGKARRELVDFGYWYCPDGRDAQTQSQFEDVEVKPQALDWLFCVAAGYPFNVSCDNLEGDFEPDRVVFQRRVHAQVMDYLTNGIPERPARFIKALQNYYHTPELTAEQFPWPEALN | not soluble |
| MNSVGFYGKLAGRGDFVSRGLPNTFVEPWDAWLASGMRASQDELGAAWLDAYLTSPLWRFAIAPGLLGGEAVTGVVMPSIDRVGRYFPLTVACLLPANADLGGLVGGDDGWFEQVESLLLSTLEPEAEVEAFEQAVAQLPAPPCGPRIEQSLISGNLLRSEAVTPAQRLAALAQHACDGASHWWGRGSARISAGLMRYQGLPPAPAFGRFLTGEGEVIPLFPGIPG | soluble |
| MNTILAQQIANEGGVEAWMIAQQHKSLLRFLTCGSVDDGKSTLIGRLLHDTLQIYEDQLSSLHNDSKRHGTQGEKLDLALLVDGLQAEREQGITIDVAYRYFSTERRKFIIADTPGHEQYTRNMATGASTCDLAILLIDARKGVLDQTRRHSFISTLLGIKHLVVAINKMDLVDYREETFARIREDYLTFAEQLPGDLDIRFVPLSALEGDNVAAQSANMRWYSGPTLLEVLETVDIQRAVDRQPMRFPVQYVNRPNLDFRGYAGTLASGSVKVGERIKVLPSGVESSVARIVTFDGDKEEACAGEAITLVLNDDIDISRGDLLLAANETLAPARHAAIDVVWMAEQPLAPGQSYDVKLAGKKTRARIEAIRYQIDINNLTQRDVESLPLNGIGLVEMTFDEPLALDIYQQNPVTGGLIFIDRLSNVTVGAGMVRELDERGATPPVEYSAFELELNALVRRHFPHWDARDLLGDKHGAA | not soluble |
| MNTKARKYIPLTEATYYILLSLVKPMHGYGIMQLVEEMTNGEVKLGPGTLYGNTTKLLKEKLIVEVASTDRKKCYELTPFGKEVLELEYNRLQRSVRNGNSILGE | soluble |
| MNTLFMHCRPGFEGEVCSEIADLAARLDVSGYAKARPDTACAEFICTEADGAERLMNGQRFDTLIFPRQWARGLFLDLPETDRISVILAQLSTFPTCGSLWLEVVDTNDGKELSNFCKKFEAPLRKALTQAGKLVDDPRKPRLLLTFKSGREVFLGLAEADNSAMWPMGIPRLKFPREAPSRSTLKLEEAWHHFIPRDQWDERLSGDMTGVDLGAAPGGWTYQLVRRGMLVTAIDNGPMAESLMDTGLVQHLMADGFTYKPRHPVDWMVCDIVEKPARNAALLETWLGEGLCREAVVNLKLPMKQRYAEVRRLLDRIEEGFQARGVRVSIGCKQLYHDREEVTCHLRRLDVAKAARK | not soluble |
| MNTLYTLFATCPRGLETVLSQELESLGCTDVQVFDGGVSCRGGLEQVYAANLHSRTASRILLRLTKGTYRNERDIYKLAKNINWFNWFTLQQTFKVKVEAKRANVKSIQFVGLTVKDAVCDAFRDIYDARPSVDKAAPDVRIHAFLNERNVEIFIDTSGEALFKRGYRLDTGEAPLRENLAAGLLLSAGYDGTQPFQDPFCGSGTIAIEAAWIAARRAPGMMRRFGFEKLQNFDKTLWSDLRRRAEAQTRPVRAPIAGSDNDRRIVQTALDNARRAGVDDIVSFSVADAQSVRPNGENGIMVSNPPYGVRLEEVRALQALYPQLGTWLKKHYAGWLAAMFTGDREMPKFMCLSPKRKIPLYNGNIDCRLFLIDMVEGSNR | not soluble |
| MNTNLAELPVRIFKILSEELQKDNIWIKIVEFDEDPIYYMKSTEIESFLKREKCCEQVLRKWGNRGQTVGSLLARLQFLSRTYEDEFDSIQFHLRRKFKPLRWIPDPEQQVTKEIDEGNIKLECKAQGFPCPEIKWFTKGSKEPVHIGRVYTILRCKCSNEHQYKCVAKNEIREGSPYSEIYRKAGKQFSSVIESEYVDVTSCIRDDELCESCKKYEMGRLSQILAEDQEKPENKVSPVRPNLDITLRAADKVALIMSNCSYVHLPELRTPHCDAQTLADALQKMNYKTVTLADLTLDEMRYFIRVYQKLIGNGVYAVFYFVGHGFEVNGQCYLLGVDAPADAHQPQHSMSMDWLLSIFRHKTPDLNLLLLDVCRKFVPYDAISAFVEYSEQFKKFHRAHRNMVYGYSTSGGVGAYEVKGEVNGVFMKYLKNHVQLEISVIDMLNKVLLDIGDDQKVCDLQVPEIRSTLTHPRSLADPLIFDGHTASFDNHTIHWRLMHELPTPATIRFETQQLVATIWFQFCGNFTNKVYVFASISDFRPCQEDTDMGENEELSENALNHRAFVEFPEELHCSDVREYNDDEEGVSMLWILSGLQKIKKEAGLTCEVHLRHVDDPEKTIEMKNVDIGHILITRIKCLQ | not soluble |
| MNTTANPSNIIVGLSGGVDSSVTAALLKQQGYQVRGVFMQNWEDDDNDEYCSIKQDSFDAIAVADIIGIDIDIVNFAAQYKDKVFAYFLQEYSAGRTPNPDVLCNAEIKFKCFLDYAVGQGADTIATGHYARKEVRNGVHYLLKGLDRNKDQSYFLYRLKPFQLERAIFPLGGLEKPEVRRLAAEFKLPTAAKKDSTGICFIGERPFREFLQKYLPTDNGKMVTPEGKTVGEHVGLMFYTLGQRKGLGIGGAGEPWFVAAKDLTKNELIVVQGHDHPLLYTRSLVMNDLSFTLPERPKAGRYTCKTRYRMADAPCELRYLDDETAELVFDEPQWAVTPGQSAVLYDGDICLGGGIIQTTDKPVIITR | not soluble |
| MNVSSSNEDTPNAPDMLSWCVHTQDNHPLPLPELKAKLLALGIDADTYALTTGLSMELEPTTLADAGYDRYQRPLLLTVDAARAWHAMRQAAVGDGIVLDAISGYRSYAYQFGILERKLAQGKTLQEILTVNAAPGFSEHHSGEALDIGMPGESPVEESFEGSSAFAWLHRHAGRFGFHLSYPRNNPHGIVYEPWHWRWRAR | not soluble |
| MNVSVLNFGNTPVSFRQDGFLNATAIASHFGKLPKDYLKSEQTQQYISALAENLSVRRKILTEANQIVIVKRGGSEQGTWLHPKLAIHFARWLNPKFAVWCDEQIEILLNGKISDGIKTVTPKPTRALPDGLTGEQIEAVKKLHNALTKSAPKEAQARIAITLWSAVKSKFGCSYKEVPAEQFPEVLSVMGRVAVENGVLYGEVLDREPLPAPQPALPISGNALYDLAVAVRYGAWAIQMGRDVSLPLKQLGCKQAVTMWTVWAETRSRLKAAANALEALNAHADAEHAAKIRPMLPEIRNLSSV | not soluble |
| MNVTEQNSHQILIQKLLVSIHYLTLFRDELKLVERTPSILGGEFPAHLVQSELGDIVAAIDTLDMQQRLIESTFWYEESAFKLMNKTLDIVDNWIKGVDHLIDLCQSKEVFQIIIGDKRIRVFGVLSDVFSSLKVSALSLKEAPIPDVLYEHIQRVNLEEEAFIKYYQSPKVPTGEFE | not soluble |
| MNVYTFDFNDIKNQSDFYREFTQTFGLASEKVSDLDTLWDAVMSDILPLPLEIEFVHLPDKLRRRYGALILLFDEAEEELEGRLRFNVRH | not soluble |
| MNYFNVGKIVNTQGLQGEMRVLSVTDFAEERFKKGAELVLFDEKDQFVQTVTIASHRKQKNFDIIKFKDMYHINTIEKYKGYSLKVAEEDLNDLDDGEFYYHEIIGLEVYEGDSLVGTIKEILQPGANDVWVVKRKGKRDLLLPYIPPVVLNVDIPSKRVDVEILEGLDDEDLEHHHHHH | soluble |
| MNYQLVKQVRENNPLRKSFIDLAVKTFDLSFEEWYQQGYWTDAYIPYAFVERNKVIANASANIIDLRWQGEPRRYIQIGTVMTEPDHRNKGLAGQLIHHILQDWQQEADAFFLFANPTTVDFYPKFGFTRSEEYQYIMPVSPRAGDFRKLDMDSPDDVALLRHYYEKSNPFSPLRVEHNFGLLMFYCSAFMKHFVYYSAKNEAVVIAMQNGPVLICFDLFCDVGKSLSTLVNELADDHVYQAILGFTPSEDRLGEYEKIEGEDILFVYDQKENLFKDRKLMFPLLAHA | not soluble |
| MNYTEHYHDWLRDAHAMEKQAESMLESMASRIENYPDIKARIEQHISETKHQITMLEEVLDRNGISRSVLKDSMSKMAAMGQSIGGMFPSDEIVKGSISGYVFEQFEIACYTSLLAAAKKAGDTASIPTIEAILKEEMQMADWLIKHIPQTTEQFLLRSEADGVEAKK | not soluble |
| MNYVSLVLVSHSEEIAKGLKKLLKQIAPDVRIAAAGGSDGEIGTNALHIQEAIESVYSEKGTVVLFDLGSALLNAELALEMADRKERVRIADAPLVEGAYIAAVEAGLGKPLEEVVQACEAAKEMVKIAK | not soluble |
| MPADIMEKNSSSPVAASVNTTPDKPKTASEHRKSSKPIMEKRRRARINESLSQLKTLILDALKKDSSRHSKLEKADILEMTVKHLRNLQRAQMTAALSTDPSVLGKYRAGFSECMNEVTRFLSTCEGVNTEVRTRLLGHLANCMTQINAMTYPGQPHPALQAPPPPPPGPGGPQHAPFAPPPPLVPIPGGAAPPPGGAPCKLGSQAGEAAKVFGGFQVVPAPDGQFAFLIPNGAFAHSGPVIPVYTSNSGTSVGPNAVSPSSGPSLTADSMWRPWRN | soluble |
| MPALSGGDGVIRFQQVSKAYRGGRQALQKVDFHLRRGEMAFLGGHSGAGKSTLLKLICAIERPTDGKISFNGHDITRIPNKDIPFLRRNIGIVFQDHRLLMDRSIYDNVALPMRIESISENEIKRRVSAALDKTGLLDKARCLPSQLSGGEQQRVGIARAVVNRPTLLLADEPTGNLDPELSSRVLRLFEEFNRAGVTILLATHDIHLVNSRPQYRHLELNQGFLSEVADYGR | not soluble |
| MPCVFQIWEKGMEKQEIGIYGREKMFMRKKENELQIDWKHFYLGVLALVIPMALQNLINVGVTAADVVMLGRVGETALSGSSLAGQVQY | not soluble |
| MPDLTKARCPCRGCNKVANNAEEVEELFGLRNMGDGTIRVQSYCRECRGLHCEASNPKCNHHA | not soluble |
| MPDSSQLVIGAGLDGLPIAQAMRLANRHGLVAGATGTGKTVTLQRLAEAFSDAGVAVFAADIKGDLCGLGAAGNPQGKVAERIAGMPWLKHQPQAYPVTLWDIHGQSGHPLRTTLSEMGPLLLGSLLELTDSQQSALYAAFKVADREGLLLLDLKDLKALLNHLKDNPQLLGDDAALMTTGSSQALLRRLATLEQQGAEALFGEPALQLEDILQPAADGRGRIHLLDASRLVHEAPKVYATFLLWLLAELFEQLPERGDADKPLLALFFDEAHLLFAGTPKALQDRLEQVVRLIRSKGVGVYFVTQSPGDLPDNVLAQLGLRIQHGLRAFTAKEQKSLRAVADGFRPNPAFDAQAVLTELGIGEALVGTLQDKGTPEMVQRVLVAPPQSRIGPLTEAERQALIASSPLLGRYDKPIDRESAYEVLLGRKELAPQDQQPSGKAAAEEPSLADRAGEFLGTAAGQALKSAMRQAANQLGRQLVRGLMGSLLGGSKRR | soluble |
| MPEDILVDIKRDYVLSKLRDNERIDGRGFDEFRKVEIIPNVIEKAEGSALVKLGDTQVVVGVKMQPGEPYPDTPDRGVIIVNAELVPLASPTFEPGPPDENSIELARVVDRGIRESEAVDLSKLVIEEGEKVWIVFVDIHALDDDGNLLDASALAAIAALMNTKVPAERFDLGEDYLLPVRDLPVSVTSLIVGNKYLVDPSREEMSVGDTTLTITTDKDDNVVAMQKSGGYLLDEKLFDELLDVSINCARKLREKFKEI | soluble |
| MPEEDLVELKFRLYDGSDVGPFQYSPTATVSMLKERIVSEWPKDKKIVPKSASDIKLINAGKILENGKTVAQCKAPFDDLPKSVITMHVVVQLSPTKARPEKKIEKEEAPQRSFCSCTIM | soluble |
